According to article PMC7429481 (British Journal of Pharmacology, 2020):

Experiments:
[1] = target: T1, human SNAP‐GLP‐1 receptor (Homo sapiens, UniProt P43220); experiment: cAMP by HTRF in HEK293‐SNAP‐GLP‐1 receptor cells; format: cell-based; details: 30 min incubation, n = 5
Procedure: Cells were stimulated with agonist for the indicated period in their respective growth mediums without FBS. […] At the end of the incubation period, cells were lysed and cAMP was determined by HTRF (cAMP Dynamic 2 kit, Cisbio) using a Spectramax i3x plate reader (Molecular Devices).

[2] = target: T1, human SNAP‐GLP‐1 receptor; experiment: GLP‐1 receptor recycling by TR‐FRET in CHO‐K1‐SNAP‐GLP‐1 receptor cells; format: cell-based; details: H89 10 μM, exendin‐4 100 nM 30 min, n = 5

T1 sequence (P43220 24-463): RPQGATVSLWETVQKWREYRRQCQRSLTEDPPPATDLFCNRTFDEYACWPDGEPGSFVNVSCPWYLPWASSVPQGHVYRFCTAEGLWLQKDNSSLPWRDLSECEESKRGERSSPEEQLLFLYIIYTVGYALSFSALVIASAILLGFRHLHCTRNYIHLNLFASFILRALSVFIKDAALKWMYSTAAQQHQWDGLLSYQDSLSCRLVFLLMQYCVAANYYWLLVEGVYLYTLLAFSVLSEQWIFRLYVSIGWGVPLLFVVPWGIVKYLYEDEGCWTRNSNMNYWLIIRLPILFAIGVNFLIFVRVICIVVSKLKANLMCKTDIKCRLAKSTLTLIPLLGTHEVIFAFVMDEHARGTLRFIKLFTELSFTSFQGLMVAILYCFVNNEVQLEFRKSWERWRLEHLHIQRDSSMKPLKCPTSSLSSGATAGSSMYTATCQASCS

Row | Compound | cAMP signalling potency of FITC conjugate [1] | effect on GLP‐1 receptor recycling after exendin‐4 pretreatment [2]
1 | lixisenatide‐FITC: FITC‐conjugate of lixisenatide | reduced cAMP signalling potency | 
2 | O=S(=O)(NCCNC/C=C/c1ccc(Br)cc1)c1cccc2cnccc12 [H89] |  | did not affect
